According to patent US20230365675A1 (published 2023):

B1: sdCD33_3 (VHH)
VHH: DVQLVESGGGLVQPGGSLRLSCSVSGNIDRFYAMGWYRQAPGKQRELVAQLTNNEITTYGDSVEGQFSISGDFDANTVYLQMDSLKPEDTAVYYCHAHVTTTRWSQDYYWGQGTRVTVSS
B2: sdCD33_2 (VHH)
VHH: QVQLVQPGGSLRLFCVASEEFFSIYAMGWYRQAPGKQHEMVARFTRDGKITYADSAKGRFTITRDAKNTLNLQMNGLIPEDTAVYYCNINHYWGQGTQVTVSS
B3: sdCD33_10 (VHH)
VHH: QVQLVETGGGLVRAGGSLRLSCAASGRTADIYNIGWFRQAPGKEREFVAAITWIGRTPYYADAVKGRFAFSTDSAKNTVSLQMDNLKPEDTGVYYCNAAHYLEGNTDYYWGQGTQVTVSS
B4: sdCD33_4 (VHH)
VHH: QVKLEESGGGSVQAGESLRLSCTASGITFRDYDIDWYRQAPGKEREWLATITPSGTTHYPDSVKGRATISRDSAKNTVYLQMNSLKPEDTARYECNTLAYWGSGTQVTVSS
B5: Anti-CD33 CAR 6 (other)
chain: QVQLVETGGGLVRAGGSLRLSCAASGRTADIYNIGWFRQAPGKEREFVAAITWIGRTPYYADAVKGRFAFSTDSAKNTVSLQMDNLKPEDTGVYYCNAAHYLEGNTDYYWGQGTQVTVSSAAATTTPAPRPPTPAPTIASQPLSLRPEACRPAAGGAVHTRGLDFACDIYIWAPLAGTCGVLLLSLVITLYCKRGRKKLLYIFKQPFMRPVQTTQEEDGCSCRFPEEEEGGCELRVKFSRSADAPAYQQGQNQLYNELNLGRREEYDVLDKRRGRDPEMGGKPRRKNPQEGLYNELQKDKMAEAYSEIGMKGERRRGKGHDGLYQGLSTATKDTYDALHMQALPPR

These molecules were tested against Biotinylated CD33 protein (UniProt P20138) (assay: Octet competition on biotinylated CD33; competitor 430).
Biotinylated CD33 protein, sequence (P20138 18-259 limits assumed): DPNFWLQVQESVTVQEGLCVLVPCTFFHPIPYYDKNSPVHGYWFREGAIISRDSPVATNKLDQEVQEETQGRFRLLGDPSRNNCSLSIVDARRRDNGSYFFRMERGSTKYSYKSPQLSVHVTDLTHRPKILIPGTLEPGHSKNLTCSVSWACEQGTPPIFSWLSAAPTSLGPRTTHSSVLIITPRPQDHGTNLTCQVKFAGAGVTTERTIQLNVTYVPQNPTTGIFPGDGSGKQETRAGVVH

In order of rising Octet signal:
1. B4  0.0905
2. B1  0.231
3. B2  0.651
4. B3  1.44

These molecules were tested against Biotinylated CD33 protein (UniProt P20138) (assay: Octet competition on biotinylated CD33; competitor 413).

In order of rising Octet signal:
1. B4  -0.0267
2. B1  0.0204
3. B2  0.623
4. B3  0.865

What follows are molecules tested against T1, Mutant CD33-GFP M3 (N99A) on 293FT cells (UniProt P20138 18-364) (assay: FACS, mutant CD33-GFP on 293FT cells).
T1 construct: whole, on cells; not shown: GFP fused to CD33
T1 sequence (P20138 18-364 N99A): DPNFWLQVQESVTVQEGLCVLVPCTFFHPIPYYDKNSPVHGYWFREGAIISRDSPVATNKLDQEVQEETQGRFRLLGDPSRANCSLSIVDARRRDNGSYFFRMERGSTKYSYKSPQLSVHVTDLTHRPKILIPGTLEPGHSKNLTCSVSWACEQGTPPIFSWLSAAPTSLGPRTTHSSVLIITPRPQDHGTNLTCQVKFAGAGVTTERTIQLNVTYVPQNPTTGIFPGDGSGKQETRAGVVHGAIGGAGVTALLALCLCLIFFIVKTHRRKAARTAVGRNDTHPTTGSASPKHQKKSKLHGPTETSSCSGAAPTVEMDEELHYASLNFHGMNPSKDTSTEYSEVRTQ

In order of rising FACS binding data:
1. B2  81.9
2. B4  97
3. B3  99
4. B1  99.4

These molecules were tested against T2, Mutant CD33-GFP M1 (W22A) on 293FT cells (UniProt P20138 18-364) (assay: FACS, mutant CD33-GFP on 293FT cells).
T2 construct: whole, on cells; not shown: GFP fused to CD33
T2 sequence (P20138 18-364 W22A): as the sequence (P20138 18-364 N99A) above, with W5A, A82N counted along it

In order of rising FACS binding data:
1. B2  8.08
2. B3  99.1
3. B4  99.3
4. B1  99.4

The molecules below were run against T3, Mutant CD33-GFP M2 (H45E) on 293FT cells (UniProt P20138 18-364) (assay: FACS, mutant CD33-GFP on 293FT cells).
T3 construct: whole, on cells; not shown: GFP fused to CD33
T3 sequence (P20138 18-364 H45E): as the sequence (P20138 18-364 N99A) above, with H28E, A82N counted along it

In order of rising FACS binding data:
1. B2  2.54
2. B3  65.5
3. B4  84.4
4. B1  98.8

What follows are molecules tested against Biotinylated CD33 protein (UniProt P20138) (assay: Octet competition on biotinylated CD33; competitor 429).

In order of falling Octet signal:
1. B2  0.0422
2. B1  -0.13
3. B4  -0.26

These molecules were tested against Biotinylated CD33 protein (UniProt P20138) (assay: Octet competition on biotinylated CD33; competitor 416).

In order of falling Octet signal:
1. B3  0.552
2. B2  0.0635
3. B1  -0.0696
4. B4  -0.28

The molecules below were run against Biotinylated CD33 protein (UniProt P20138) (assay: Octet competition on biotinylated CD33; competitor 420).

In order of falling Octet signal:
1. B3  0.95
2. B2  0.381
3. B1  -0.0387
4. B4  -0.0649

Each molecule was assayed against CD33 on MOLM-13 cells (human, UniProt P20138 18-364) (assay: cell-based or functional assay).
CD33 on MOLM-13 cells, sequence (P20138 18-364): as the sequence (P20138 18-364 N99A) above, with A82N counted along it

B5 was tested, and the Ratio was 3.6.

In the case of B5, the “Testing FP2 Expression (CD33+)” value is reported as 22.9 % of constitutive-fluorescence-positive cells.

Each molecule was assayed against Biotinylated CD33 protein (UniProt P20138) (assay: Octet competition on biotinylated CD33; competitor 426).

In order of falling Octet signal:
1. B3  0.543
2. B2  0.158
3. B1  -0.0122
4. B4  -0.137

What follows are molecules tested against Biotinylated CD33 protein (UniProt P20138) (assay: Octet competition on biotinylated CD33; competitor 389).

In order of rising Octet signal:
1. B1  0.152
2. B2  0.584
3. B3  1.16

Each molecule was assayed against Biotinylated CD33 protein (UniProt P20138) (assay: Octet competition on biotinylated CD33; competitor 353).

In order of rising Octet signal:
1. B4  -0.101
2. B2  0.322
3. B3  1.01

These molecules were tested against T4, Mutant CD33-GFP M8 (K52A) on 293FT cells (UniProt P20138 18-364) (assay: FACS, mutant CD33-GFP on 293FT cells).
T4 construct: whole, on cells; not shown: GFP fused to CD33
T4 sequence (P20138 18-364 K52A): as the sequence (P20138 18-364 N99A) above, with K35A, A82N counted along it

In order of rising FACS binding data:
1. B4  0.15
2. B3  66.1
3. B2  91.2
4. B1  97.3

These molecules were tested against T5, Mutant CD33-GFP M7 (R98D) on 293FT cells (UniProt P20138 18-364) (assay: FACS, mutant CD33-GFP on 293FT cells).
T5 construct: whole, on cells; not shown: GFP fused to CD33
T5 sequence (P20138 18-364 R98D): as the sequence (P20138 18-364 N99A) above, with R81D, A82N counted along it

In order of falling FACS binding data:
1. B1  98.8
2. B3  97.1
3. B4  21.5
4. B2  0.48

These molecules were tested against T6, Mutant CD33-GFP M6 (F43N) on 293FT cells (UniProt P20138 18-364) (assay: FACS, mutant CD33-GFP on 293FT cells).
T6 construct: whole, on cells; not shown: GFP fused to CD33
T6 sequence (P20138 18-364 F43N): as the sequence (P20138 18-364 N99A) above, with F26N, A82N counted along it

In order of rising FACS binding data:
1. B2  95.3
2. B3  97.6
3. B4  98.3
4. B1  99

These molecules were tested against CD33-GFP fusion protein, wild type (WT), on 293FT cells (UniProt P20138) (assay: FACS, WT CD33-GFP on 293FT cells).
CD33-GFP fusion protein, wild type (WT), on 293FT cells, sequence (P20138 18-364): as the sequence (P20138 18-364 N99A) above, with A82N counted along it

In order of falling FACS binding data:
1. B4  98.4
2. B1  98.3
3. B2  98.3
4. B3  98
5. hu195 (antibody)  97.8

What follows are molecules tested against Biotinylated CD33 protein (UniProt P20138) (assay: Octet competition on biotinylated CD33; competitor h195).

In order of rising Octet signal:
1. B1  0.295
2. B4  0.355
3. B2  0.799
4. B3  1.37

The molecules below were run against Biotinylated CD33 protein (UniProt P20138) (assay: Octet competition on biotinylated CD33; competitor 424).

In order of rising Octet signal:
1. B4  -0.271
2. B1  -0.108
3. B2  0.0143
4. B3  0.628

What follows are molecules tested against Biotinylated CD33 protein (UniProt P20138) (assay: Octet competition on biotinylated CD33; competitor 348).

In order of rising Octet signal:
1. B4  -0.146
2. B1  0.0077
3. B3  0.616

Each molecule was assayed against Mutant CD33-GFP M12 (G88S) on 293FT cells (UniProt P20138) (assay: FACS, mutant CD33-GFP on 293FT cells).
Mutant CD33-GFP M12 (G88S) on 293FT cells, sequence (P20138 18-364 G88S): as the sequence (P20138 18-364 N99A) above, with G71S, A82N counted along it

In order of falling FACS binding data:
1. B1  99
2. B4  99
3. B3  98.6
4. B2  98.2

The molecules below were run against Mutant CD33-GFP M5 (AEAD), quadruple mutant, on 293FT cells (UniProt P20138) (assay: FACS, mutant CD33-GFP on 293FT cells).
Mutant CD33-GFP M5 (AEAD), quadruple mutant, on 293FT cells, sequence (P20138 other isoform, or with tags, fused parts or gaps mutant): as the sequence (P20138 18-364 N99A) above, with W5A, H28E, R105D counted along it

In order of falling FACS binding data:
1. B2  0.41
2. B1  0.31
3. B4  0.16
4. B3  0.12

What follows are molecules tested against Mutant CD33-GFP JS24 (Q24E) on 293FT cells (UniProt P20138) (assay: FACS, mutant CD33-GFP on 293FT cells).
Mutant CD33-GFP JS24 (Q24E) on 293FT cells, sequence (P20138 18-364 Q24E): as the sequence (P20138 18-364 N99A) above, with Q7E, A82N counted along it

In order of falling FACS binding data:
1. B1  99.4
2. B4  99.3
3. B2  98.8
4. B3  98.2

These molecules were tested against Mutant CD33-GFP JS23 (L23N) on 293FT cells (UniProt P20138) (assay: FACS, mutant CD33-GFP on 293FT cells).
Mutant CD33-GFP JS23 (L23N) on 293FT cells, sequence (P20138 18-364 L23N): as the sequence (P20138 18-364 N99A) above, with L6N, A82N counted along it

In order of falling FACS binding data:
1. B1  99.1
2. B4  99
3. B3  98.4
4. B2  95.4

Each molecule was assayed against Mutant CD33-GFP JS28 (S28L) on 293FT cells (UniProt P20138) (assay: FACS, mutant CD33-GFP on 293FT cells).
Mutant CD33-GFP JS28 (S28L) on 293FT cells, sequence (P20138 18-364 S28L): as the sequence (P20138 18-364 N99A) above, with S11L, A82N counted along it

In order of falling FACS binding data:
1. B1  99.6
2. B3  99.6
3. B4  99.6
4. B2  99.5

Each molecule was assayed against Mutant CD33-GFP M9 (Y49, 50A) on 293FT cells (UniProt P20138) (assay: FACS, mutant CD33-GFP on 293FT cells).
Mutant CD33-GFP M9 (Y49, 50A) on 293FT cells, sequence (P20138 other isoform, or with tags, fused parts or gaps mutant): as the sequence (P20138 18-364 N99A) above, with Y32A, Y33A, A82N counted along it

In order of rising FACS binding data:
1. B3  0.22
2. B2  0.39
3. B1  0.64
4. B4  97.4

What follows are molecules tested against Mutant CD33-GFP M11 (L78T) on 293FT cells (UniProt P20138) (assay: FACS, mutant CD33-GFP on 293FT cells).
Mutant CD33-GFP M11 (L78T) on 293FT cells, sequence (P20138 18-364 L78T): as the sequence (P20138 18-364 N99A) above, with L61T, A82N counted along it

In order of rising FACS binding data:
1. B2  33.4
2. B4  62.8
3. B3  67.3
4. B1  78

Each molecule was assayed against Mutant CD33-GFP M15 (Q171A) on 293FT cells (UniProt P20138) (assay: FACS, mutant CD33-GFP on 293FT cells).
Mutant CD33-GFP M15 (Q171A) on 293FT cells, sequence (P20138 18-364 Q171A): as the sequence (P20138 18-364 N99A) above, with A82N, Q154A counted along it

In order of rising FACS binding data:
1. B1  98.2
2. B2  98.7
3. B4  98.8
4. B3  98.9

What follows are molecules tested against Mutant CD33-GFP M17 (F21Y) on 293FT cells (UniProt P20138) (assay: FACS, mutant CD33-GFP on 293FT cells).
Mutant CD33-GFP M17 (F21Y) on 293FT cells, sequence (P20138 18-364 F21Y): as the sequence (P20138 18-364 N99A) above, with F4Y, A82N counted along it

In order of falling FACS binding data:
1. B2  98.9
2. B4  98.5
3. B1  98.2
4. B3  94.1

The molecules below were run against Mutant CD33-GFP M18 (353AAL) on 293FT cells (UniProt P20138) (assay: FACS, mutant CD33-GFP on 293FT cells).

In order of falling FACS binding data:
1. B4  99.5
2. B1  99
3. B2  97.3
4. B3  15.6

The molecules below were run against Mutant CD33-GFP JS25 (V25M) on 293FT cells (UniProt P20138) (assay: FACS, mutant CD33-GFP on 293FT cells).
Mutant CD33-GFP JS25 (V25M) on 293FT cells, sequence (P20138 18-364 V25M): as the sequence (P20138 18-364 N99A) above, with V8M, A82N counted along it

In order of falling FACS binding data:
1. B1  99.7
2. B3  99.6
3. B4  99.5
4. B2  99.3

Each molecule was assayed against Mutant CD33-GFP M19 (348ATAI) on 293FT cells (UniProt P20138) (assay: FACS, mutant CD33-GFP on 293FT cells).

In order of falling FACS binding data:
1. B1  99.6
2. B4  99.6
3. B2  99
4. B3  98.3

What follows are molecules tested against Mutant CD33-GFP M16 (4889AII) on 293FT cells (UniProt P20138) (assay: FACS, mutant CD33-GFP on 293FT cells).

In order of rising FACS binding data:
1. B1  98.4
2. B2  98.4
3. B3  98.6
4. B4  98.7

What follows are molecules tested against Mutant CD33-GFP M10 (Y127A) on 293FT cells (UniProt P20138) (assay: FACS, mutant CD33-GFP on 293FT cells).
Mutant CD33-GFP M10 (Y127A) on 293FT cells, sequence (P20138 18-364 Y127A): as the sequence (P20138 18-364 N99A) above, with A82N, Y110A counted along it

In order of falling FACS binding data:
1. B2  98.5
2. B4  97.2
3. B1  96.3
4. B3  93.9

These molecules were tested against Mutant CD33-GFP N20D on 293FT cells (UniProt P20138) (assay: FACS, mutant CD33-GFP on 293FT cells).
Mutant CD33-GFP N20D on 293FT cells, sequence (P20138 18-364 N20D): as the sequence (P20138 18-364 N99A) above, with N3D, A82N counted along it

In order of falling FACS binding data:
1. B2  98.9
2. B1  98.7
3. B4  98.5
4. B3  96.6

What follows are molecules tested against Mutant CD33-GFP M13 (R91E) on 293FT cells (UniProt P20138) (assay: FACS, mutant CD33-GFP on 293FT cells).
Mutant CD33-GFP M13 (R91E) on 293FT cells, sequence (P20138 18-364 R91E): as the sequence (P20138 18-364 N99A) above, with R74E, A82N counted along it

In order of rising FACS binding data:
1. B3  98.5
2. B2  98.6
3. B1  98.7
4. B4  99.1

Each molecule was assayed against Mutant CD33-GFP M4 (R122D) on 293FT cells (UniProt P20138) (assay: FACS, mutant CD33-GFP on 293FT cells).
Mutant CD33-GFP M4 (R122D) on 293FT cells, sequence (P20138 18-364 R122D): as the sequence (P20138 18-364 N99A) above, with A82N, R105D counted along it

In order of rising FACS binding data:
1. B2  1.43
2. B4  6.01
3. B3  21.1
4. B1  98.5

These molecules were tested against Mutant CD33-GFP M14 (E170R) on 293FT cells (UniProt P20138) (assay: FACS, mutant CD33-GFP on 293FT cells).
Mutant CD33-GFP M14 (E170R) on 293FT cells, sequence (P20138 18-364 E170R): as the sequence (P20138 18-364 N99A) above, with A82N, E153R counted along it

In order of falling FACS binding data:
1. B4  98.8
2. B1  98.7
3. B3  98.4
4. B2  98.2
